Measured values taken from the Human Domainome abundance scans (Beltran et al. 2025).
± gives the uncertainty stated by the source.

B1: Triacylglycerol hydrolase DDHD2, residues 389 to 447; numbered along this chain, O94830 (parent)
chain: TLEEDLKKLQLSEFFDIFEKEKVDKEALALCTDRDLQEIGIPLGPRKKILNYFSTRKNS

Variants of: B1
Assay: abundance fitness (aPCA) (normalised: wild type 0, dead -1); higher = more abundant; growth selection in yeast, the domain comes from the species named
Conditions: Homo sapiens

Row | Variant | abundance fitness
1 | TLEEDLKKLQLSEFFDIFEKEKVDKEALALCTDRDLQEIGIPLHPRKKILNYFSTRKNS [G44H] | 0.101 ± 0.059
2 | TLEEDLKKLQLSEFFDIFEKEKVDKEALALCTDRDLQEIGIPLIPRKKILNYFSTRKNS [G44I] | 0.418 ± 0.052
3 | TLEEDLKKLQLSEFFDIFEKEKVDKEALALCTDRDLQEIGIPLKPRKKILNYFSTRKNS [G44K] | 0.18 ± 0.072
4 | TLEEDLKKLQLSEFFDIFEKEKVDKEALALCTDRDLQEIGIPLLPRKKILNYFSTRKNS [G44L] | 0.1 ± 0.049
5 | TLEEDLKKLQLSEFFDIFEKEKVDKEALALCTDRDLQEIGIPLMPRKKILNYFSTRKNS [G44M] | 0.06 ± 0.069
6 | TLEEDLKKLQLSEFFDIFEKEKVDKEALALCTDRDLQEIGIPLNPRKKILNYFSTRKNS [G44N] | 0.041 ± 0.058
7 | TLEEDLKKLQLSEFFDIFEKEKVDKEALALCTDRDLQEIGIPLPPRKKILNYFSTRKNS [G44P] | -0.079 ± 0.064
8 | TLEEDLKKLQLSEFFDIFEKEKVDKEALALCTDRDLQEIGIPLQPRKKILNYFSTRKNS [G44Q] | 0.333 ± 0.069
9 | TLEEDLKKLQLSEFFDIFEKEKVDKEALALCTDRDLQEIGIPLRPRKKILNYFSTRKNS [G44R] | -0.056 ± 0.055
10 | TLEEDLKKLQLSEFFDIFEKEKVDKEALALCTDRDLQEIGIPLSPRKKILNYFSTRKNS [G44S] | 0.167 ± 0.048
11 | TLEEDLKKLQLSEFFDIFEKEKVDKEALALCTDRDLQEIGIPLVPRKKILNYFSTRKNS [G44V] | 0.375 ± 0.049
12 | TLEEDLKKLQLSEFFDIFEKEKVDKEALALCTDRDLQEIGIPLWPRKKILNYFSTRKNS [G44W] | -0.275 ± 0.07
13 | TLEEDLKKLQLSEFFDIFEKEKVDKEALALCTDRDLQEIGIPLYPRKKILNYFSTRKNS [G44Y] | -0.122 ± 0.054
14 | TLEEDLKKLQLSEFFDIFEKEKVDKEALALCTDRDLQEIGIPLGARKKILNYFSTRKNS [P45A] | 0.615 ± 0.067
15 | TLEEDLKKLQLSEFFDIFEKEKVDKEALALCTDRDLQEIGIPLGCRKKILNYFSTRKNS [P45C] | -0.205 ± 0.085
16 | TLEEDLKKLQLSEFFDIFEKEKVDKEALALCTDRDLQEIGIPLGDRKKILNYFSTRKNS [P45D] | 0.017 ± 0.076
17 | TLEEDLKKLQLSEFFDIFEKEKVDKEALALCTDRDLQEIGIPLGERKKILNYFSTRKNS [P45E] | 0.244 ± 0.11
18 | TLEEDLKKLQLSEFFDIFEKEKVDKEALALCTDRDLQEIGIPLGFRKKILNYFSTRKNS [P45F] | -0.144 ± 0.072
19 | TLEEDLKKLQLSEFFDIFEKEKVDKEALALCTDRDLQEIGIPLGGRKKILNYFSTRKNS [P45G] | -0.168 ± 0.074
20 | TLEEDLKKLQLSEFFDIFEKEKVDKEALALCTDRDLQEIGIPLGHRKKILNYFSTRKNS [P45H] | -0.261 ± 0.094
21 | TLEEDLKKLQLSEFFDIFEKEKVDKEALALCTDRDLQEIGIPLGKRKKILNYFSTRKNS [P45K] | -0.285 ± 0.12
22 | TLEEDLKKLQLSEFFDIFEKEKVDKEALALCTDRDLQEIGIPLGLRKKILNYFSTRKNS [P45L] | -0.496 ± 0.072
23 | TLEEDLKKLQLSEFFDIFEKEKVDKEALALCTDRDLQEIGIPLGMRKKILNYFSTRKNS [P45M] | 0.019 ± 0.11

Row | Variant | abundance fitness
24 | TLEEDLKKLQLSEFFDIFEKEKVDKEALALCTDRDLQEIGIPLGNRKKILNYFSTRKNS [P45N] | -0.274 ± 0.08
25 | TLEEDLKKLQLSEFFDIFEKEKVDKEALALCTDRDLQEIGIPLGQRKKILNYFSTRKNS [P45Q] | 0.188 ± 0.1
26 | TLEEDLKKLQLSEFFDIFEKEKVDKEALALCTDRDLQEIGIPLGRRKKILNYFSTRKNS [P45R] | -0.716 ± 0.09
27 | TLEEDLKKLQLSEFFDIFEKEKVDKEALALCTDRDLQEIGIPLGSRKKILNYFSTRKNS [P45S] | -0.032 ± 0.068
28 | TLEEDLKKLQLSEFFDIFEKEKVDKEALALCTDRDLQEIGIPLGTRKKILNYFSTRKNS [P45T] | -0.031 ± 0.081
29 | TLEEDLKKLQLSEFFDIFEKEKVDKEALALCTDRDLQEIGIPLGVRKKILNYFSTRKNS [P45V] | 0.411 ± 0.063
30 | TLEEDLKKLQLSEFFDIFEKEKVDKEALALCTDRDLQEIGIPLGWRKKILNYFSTRKNS [P45W] | -1.26 ± 0.23
31 | TLEEDLKKLQLSEFFDIFEKEKVDKEALALCTDRDLQEIGIPLGYRKKILNYFSTRKNS [P45Y] | -0.426 ± 0.084
32 | TLEEDLKKLQLSEFFDIFEKEKVDKEALALCTDRDLQEIGIPLGPAKKILNYFSTRKNS [R46A] | 0.45 ± 0.066
33 | TLEEDLKKLQLSEFFDIFEKEKVDKEALALCTDRDLQEIGIPLGPCKKILNYFSTRKNS [R46C] | -0.172 ± 0.08
34 | TLEEDLKKLQLSEFFDIFEKEKVDKEALALCTDRDLQEIGIPLGPDKKILNYFSTRKNS [R46D] | -0.242 ± 0.098
35 | TLEEDLKKLQLSEFFDIFEKEKVDKEALALCTDRDLQEIGIPLGPEKKILNYFSTRKNS [R46E] | -0.217 ± 0.1
36 | TLEEDLKKLQLSEFFDIFEKEKVDKEALALCTDRDLQEIGIPLGPGKKILNYFSTRKNS [R46G] | -0.107 ± 0.055
37 | TLEEDLKKLQLSEFFDIFEKEKVDKEALALCTDRDLQEIGIPLGPIKKILNYFSTRKNS [R46I] | -0.163 ± 0.1
38 | TLEEDLKKLQLSEFFDIFEKEKVDKEALALCTDRDLQEIGIPLGPKKKILNYFSTRKNS [R46K] | -0.338 ± 0.14
39 | TLEEDLKKLQLSEFFDIFEKEKVDKEALALCTDRDLQEIGIPLGPLKKILNYFSTRKNS [R46L] | -0.744 ± 0.088
40 | TLEEDLKKLQLSEFFDIFEKEKVDKEALALCTDRDLQEIGIPLGPMKKILNYFSTRKNS [R46M] | -0.431 ± 0.15
41 | TLEEDLKKLQLSEFFDIFEKEKVDKEALALCTDRDLQEIGIPLGPNKKILNYFSTRKNS [R46N] | -0.152 ± 0.11
42 | TLEEDLKKLQLSEFFDIFEKEKVDKEALALCTDRDLQEIGIPLGPPKKILNYFSTRKNS [R46P] | -0.628 ± 0.11
43 | TLEEDLKKLQLSEFFDIFEKEKVDKEALALCTDRDLQEIGIPLGPQKKILNYFSTRKNS [R46Q] | -0.243 ± 0.12
44 | TLEEDLKKLQLSEFFDIFEKEKVDKEALALCTDRDLQEIGIPLGPSKKILNYFSTRKNS [R46S] | -0.058 ± 0.066
45 | TLEEDLKKLQLSEFFDIFEKEKVDKEALALCTDRDLQEIGIPLGPTKKILNYFSTRKNS [R46T] | -0.224 ± 0.095
